Data from the RNAGym collection of RNA variant scans (doi:10.1073/pnas.2313332121).
Fewer inactive variants are shown than the library holds.

B1: TPR 5TU (parent)
chain: GGAUCUUCUCGAUCUAACAAAAAAGACAAAUCUGCCACAAAGCUUGAGAGCAUCUUCGGAUGCAGAGGCGGCAGCCUUCGGUGGCGCGAUAGCGCCAACGUUCUCAACUAUGACACGCAAAACGCGUGCUCCGUUGAAUGGAGUUUAUCAUG

Variants of: B1
Assay: polymerase ribozyme fitness, log enrichment relative to wild type (log ratio); higher = more active; in vitro selection for triplet polymerase activity
Method in brief: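 The heterodimeric triplet polymerase ribozyme's subunits were each mutagenized into PCR-built libraries and transcribed. Every library was selected once, in triplicate, by annealing with a biotinylated primer, the partner subunit and triplets, incubating frozen at −7 °C, gel-excising extended constructs, capturing on streptavidin beads and running RT-PCR. Input and output libraries were Illumina-sequenced, with genotypes kept only at ≥10 input reads and ≥1 read per output. Fitness, from inverse-variance-weighted replicate averages, is the base-2 logarithm of genotype enrichment over wild-type enrichment.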
For G80A G92C, the “polymerase ribozyme fitness (log ratio)” value was -0.857.
In the case of U6G A41G G48U C54U A122U, the “polymerase ribozyme fitness (log ratio)” value is reported as -0.949.
With G84A A97U U146C the “polymerase ribozyme fitness (log ratio)” value was -0.418.
In the case of C85U C131U G143U, the “polymerase ribozyme fitness (log ratio)” value is reported as -2.54.
For A49U G141A, the “polymerase ribozyme fitness (log ratio)” value was -1.34.
For A3U A16C A20C A47U U53G G86A A110G, the “polymerase ribozyme fitness (log ratio)” value was no more than -4.2.
For C38U G71A G81A G83U C93A, the “polymerase ribozyme fitness (log ratio)” value was no more than -4.2.
For C14G G83A, the “polymerase ribozyme fitness (log ratio)” value was -2.42.
With C116A A142C the “polymerase ribozyme fitness (log ratio)” value was -3.92.
With C54U A66G C72U G81C C96A A107G G133U U145A the “polymerase ribozyme fitness (log ratio)” value was no more than -4.2.
In the case of A89G C95U A142C, the “polymerase ribozyme fitness (log ratio)” value is reported as -2.81.
For U101G A150G, the “polymerase ribozyme fitness (log ratio)” value was -0.649.
With A41C A47C G88U A97U the “polymerase ribozyme fitness (log ratio)” value was -4.03.
With C14A G94A the “polymerase ribozyme fitness (log ratio)” value was -1.67.
With C32G A49C A52C G143U the “polymerase ribozyme fitness (log ratio)” value was no more than -4.2.
For G71C A73C C108U U146C C149G, the “polymerase ribozyme fitness (log ratio)” value was no more than -4.2.
In the case of C38U C105U C118G U139G, the “polymerase ribozyme fitness (log ratio)” value is reported as -1.24.
For C125A U148C, the “polymerase ribozyme fitness (log ratio)” value was -3.48.
In the case of A121G U127C, the “polymerase ribozyme fitness (log ratio)” value is reported as -2.42.
In the case of G83C A97G C108G, the “polymerase ribozyme fitness (log ratio)” value is reported as no more than -4.2.
For A23C C35A C36G C54A A137G U148G, the “polymerase ribozyme fitness (log ratio)” value was no more than -4.2.
With A19C G88C the “polymerase ribozyme fitness (log ratio)” value was -3.96.
In the case of U4C A60U G74A C93U A106U A107U A150C, the “polymerase ribozyme fitness (log ratio)” value is reported as no more than -4.2.
For A60G G100A U151G, the “polymerase ribozyme fitness (log ratio)” value was no more than -4.2.
With A49G C69U the “polymerase ribozyme fitness (log ratio)” value was -1.39.
In the case of A28U U44A C87G A106C, the “polymerase ribozyme fitness (log ratio)” value is reported as no more than -4.2.
For A41G C57U C85U C116U, the “polymerase ribozyme fitness (log ratio)” value was 0.221.
With A3G A20C G65C G68C A98G C149U G152U the “polymerase ribozyme fitness (log ratio)” value was no more than -4.2.
With G42A A142C the “polymerase ribozyme fitness (log ratio)” value was -4.17.
In the case of A16C C72U U82A C85U A91U, the “polymerase ribozyme fitness (log ratio)” value is reported as no more than -4.2.
For G84A G86U C95A C99U U101A C123G, the “polymerase ribozyme fitness (log ratio)” value was no more than -4.2.
For U56G C85U, the “polymerase ribozyme fitness (log ratio)” value was -1.42.
In the case of G68A C75A G128A A150C, the “polymerase ribozyme fitness (log ratio)” value is reported as no more than -4.2.
With A16G A17U A52C A91U C93U U111G C123U G124U G133A the “polymerase ribozyme fitness (log ratio)” value was no more than -4.2.
For C76A C87U, the “polymerase ribozyme fitness (log ratio)” value was -2.16.
In the case of U45A G50A U135G, the “polymerase ribozyme fitness (log ratio)” value is reported as no more than -4.2.
In the case of G80U A91G A110G, the “polymerase ribozyme fitness (log ratio)” value is reported as no more than -4.2.
For G58C A122U A142G G143A, the “polymerase ribozyme fitness (log ratio)” value was -4.05.
In the case of A40G G92U C108U G124A G128U, the “polymerase ribozyme fitness (log ratio)” value is reported as no more than -4.2.
With C38A A66G G70A the “polymerase ribozyme fitness (log ratio)” value was no more than -4.2.
For A41G C76U C93G A106G A122G C129A G141U, the “polymerase ribozyme fitness (log ratio)” value was no more than -4.2.
For U7G U44G U55G C99A, the “polymerase ribozyme fitness (log ratio)” value was no more than -4.2.
With A60U C76A A120U the “polymerase ribozyme fitness (log ratio)” value was -1.94.
For A147U U148A, the “polymerase ribozyme fitness (log ratio)” value was -2.81.
In the case of C36U A37U U56A A91C C116G, the “polymerase ribozyme fitness (log ratio)” value is reported as no more than -4.2.
For C76U C85U A138C U144A, the “polymerase ribozyme fitness (log ratio)” value was no more than -4.2.
With A49C C93U the “polymerase ribozyme fitness (log ratio)” value was no more than -4.2.
With U56A A73U C87A A142C the “polymerase ribozyme fitness (log ratio)” value was no more than -4.2.
For G94C A106G, the “polymerase ribozyme fitness (log ratio)” value was -1.31.
In the case of U56G U151C, the “polymerase ribozyme fitness (log ratio)” value is reported as no more than -4.2.
For G70C G80A, the “polymerase ribozyme fitness (log ratio)” value was -3.94.
With U33A U145C the “polymerase ribozyme fitness (log ratio)” value was -4.
In the case of A41U C57U C85U, the “polymerase ribozyme fitness (log ratio)” value is reported as -1.12.
For C8U C18G G50C G58U A73G C76A C93A C116A A120C, the “polymerase ribozyme fitness (log ratio)” value was no more than -4.2.
With G94C A150U the “polymerase ribozyme fitness (log ratio)” value was 1.09.
In the case of A23C U56A G86U A115G, the “polymerase ribozyme fitness (log ratio)” value is reported as no more than -4.2.
With A29G U55G G94A C108A A119G the “polymerase ribozyme fitness (log ratio)” value was no more than -4.2.
In the case of C14U G141U, the “polymerase ribozyme fitness (log ratio)” value is reported as 0.0902.
With A37C C63G C99A U111C C114U A119U the “polymerase ribozyme fitness (log ratio)” value was no more than -4.2.
For A22U C99U U101G A115U U151G, the “polymerase ribozyme fitness (log ratio)” value was no more than -4.2.
For A12U C79U C93G C132G, the “polymerase ribozyme fitness (log ratio)” value was no more than -4.2.
In the case of A66C G92A, the “polymerase ribozyme fitness (log ratio)” value is reported as no more than -4.2.
With C27A G50A C54U C95A the “polymerase ribozyme fitness (log ratio)” value was no more than -4.2.
With A28G C57A U61A C76A G88A C93U U102G the “polymerase ribozyme fitness (log ratio)” value was no more than -4.2.
In the case of U55A U148C, the “polymerase ribozyme fitness (log ratio)” value is reported as -1.05.
For A22G C85U G133C, the “polymerase ribozyme fitness (log ratio)” value was -1.48.
With C18U C76A U127G A137C the “polymerase ribozyme fitness (log ratio)” value was no more than -4.2.
For U56G G59U C87A, the “polymerase ribozyme fitness (log ratio)” value was no more than -4.2.
With C95U C118U the “polymerase ribozyme fitness (log ratio)” value was -1.09.
With A12G A89C C96G the “polymerase ribozyme fitness (log ratio)” value was -1.66.
For U13C G50U G86C A89U C96A C116A, the “polymerase ribozyme fitness (log ratio)” value was no more than -4.2.
For C85G C116A, the “polymerase ribozyme fitness (log ratio)” value was -0.515.
With C8A A17U U55A G81C C87A A91U U144C U145C the “polymerase ribozyme fitness (log ratio)” value was no more than -4.2.
In the case of U53G A107C, the “polymerase ribozyme fitness (log ratio)” value is reported as no more than -4.2.
In the case of C32U U55G, the “polymerase ribozyme fitness (log ratio)” value is reported as -1.52.
With A47G G133C C149G the “polymerase ribozyme fitness (log ratio)” value was -3.65.
In the case of C51G C85A G92U C95A, the “polymerase ribozyme fitness (log ratio)” value is reported as no more than -4.2.
For U15A U55A G59A, the “polymerase ribozyme fitness (log ratio)” value was 0.845.
For C10U C27G C54U G92C C114G, the “polymerase ribozyme fitness (log ratio)” value was no more than -4.2.
For U7A C14G A29G C35G C36A G74A A91U C96A, the “polymerase ribozyme fitness (log ratio)” value was no more than -4.2.
With C35U G86A C105A A137U the “polymerase ribozyme fitness (log ratio)” value was no more than -4.2.
For A37C A52G U82C C85G C95U C105U A142C A150G, the “polymerase ribozyme fitness (log ratio)” value was no more than -4.2.
With U56A G81U U101G the “polymerase ribozyme fitness (log ratio)” value was -0.889.
For C54G C95A C118G, the “polymerase ribozyme fitness (log ratio)” value was -2.03.
